Measured values reported in patent publication US20180118848A1 (Regeneron, published 2018).
Numbering of substitutions follows the chain as printed. Names may count otherwise.

B1: H3M9524N (antibody, mouse IgG3, V domains shown)
VH: QVQLQQWGAGLLKPSETLSLTCAVYGGSFSDYYWSWIRQPPGKGLEWIGEINHRGKTNYNPSLKSRVSISVDPSKNQFSLKLSSVTAADTAVYYCARQGWNYAIFDYWGQGILVPVSS
VL: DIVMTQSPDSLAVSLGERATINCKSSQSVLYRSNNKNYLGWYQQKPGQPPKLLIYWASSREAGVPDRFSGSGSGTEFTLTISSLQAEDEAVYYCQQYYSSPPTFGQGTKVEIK
notes: Human variable regions, mouse IgG3 constant region
B2: H1H9524N (antibody, human IgG1, V domains shown)
VH: B1 VH
VL: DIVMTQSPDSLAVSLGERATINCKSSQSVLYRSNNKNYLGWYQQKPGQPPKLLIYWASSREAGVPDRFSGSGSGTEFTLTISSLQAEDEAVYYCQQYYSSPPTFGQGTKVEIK
notes: Human IgG1 form of H3M9524N
B3: H1H9525N (antibody, human IgG1, V domains shown)
VH: B1 VH with D31G, R54S, N58T, N60S, S68T, P73T, N76S, W100L, I112T, P115T
VL: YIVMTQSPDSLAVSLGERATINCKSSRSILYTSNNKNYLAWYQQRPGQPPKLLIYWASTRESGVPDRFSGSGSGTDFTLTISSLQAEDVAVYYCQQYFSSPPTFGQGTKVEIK
notes: Human IgG1 form of H3M9525N
B4: H3M9525N (antibody, mouse IgG3, V domains shown)
VH: B1 VH with D31G, R54S, N58T, N60S, S68T, P73T, N76S, W100L, I112T, P115T
VL: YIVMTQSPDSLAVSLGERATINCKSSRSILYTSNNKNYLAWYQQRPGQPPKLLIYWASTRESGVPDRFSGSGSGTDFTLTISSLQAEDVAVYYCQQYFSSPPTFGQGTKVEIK
notes: as for B1
B5: H3M9529N (antibody, mouse IgG3, V domains shown)
VH: QVQLQQWGAGLLKPSETLSLTCAVYGGSFSGFYWSWIRQPPGKGLEWIGEINHSGSAKYNPSLKNRVIISIDTSKNQFSLKLDSVTAADTAVYNCARQGWNFAIFDYWGQGTLVDVSS
VL: DIVMTQSPDSLAVSLGGRATINCKSSQSVLHSSYNKDHLAWYQQRPGQPPKLLIYWASTRESGVPDRFSGSGSGTDFTLTISSLQAEDVAVYYCQQYNILPPTFGQGTRVEIK
notes: as for B1
B6: H1H9529N (antibody, human IgG1, V domains shown)
VH: B5 VH
VL: B5 VL
notes: Human IgG1 form of H3M9529N
B7: H1M9528N (antibody, mouse IgG1, V domains shown)
VH: QMQLQESGPGLVKPSETLSLTCTVSGGSISSYYWNWIRQPPGKGLEWIGYIYYSGNNFNPSLKSRVTISVDTSKNQFSLKLSSVTAADTAVYYCARAFHWNYEFDYWGQGTLVTVSS
VL: EIVLTQSPGTLSLSPGERATLSCRASQSVSNNYLAWYQQKPGQAPRLLLYGASSRTTDIPDRFSGSGSGTDFTLTISRLEPEDFAVYYCQQYDNSPLTFGGGTKVEIR
notes: Human variable regions, mouse IgG1 constant region
B8: H1H9528N (antibody, human IgG1, V domains shown)
VH: B7 VH
VL: B7 VL
notes: Human IgG1 form of H1M9528N
B9: H2M9538N (antibody, V domains shown)
VH: QVQLQESGPGLVKPSETLSLTCTVSGGSISSYYWSWIRQPPGKGLEWIGYIYYSGSTNYNPSLKSRVTISVDTSKNQFSLKLSSVTAADTAVYYCARKKLVFDYWGQGTLVTVSS
VL: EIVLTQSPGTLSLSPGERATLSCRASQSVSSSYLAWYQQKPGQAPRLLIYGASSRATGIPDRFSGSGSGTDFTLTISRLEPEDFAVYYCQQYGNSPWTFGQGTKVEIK
B10: H1H9538N (antibody, V domains shown)
VH: B9 VH
VL: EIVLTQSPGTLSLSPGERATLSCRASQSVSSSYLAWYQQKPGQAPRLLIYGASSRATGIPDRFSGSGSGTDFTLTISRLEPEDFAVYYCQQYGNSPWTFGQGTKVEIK
B11: H2M7138N (antibody, mouse IgG2, V domains shown)
VH: QVQLVQSGAEVKKPGASVKVSCKASGYTFTSSDINWVRQATGQGLEWVGWMNPNYGYTGSARKFQDRVTMTRNTSLSTAYLELHSLRSEDTAVYYCARVTYCSSVTSCFRPFTYWGQGTLVTVSA
VL: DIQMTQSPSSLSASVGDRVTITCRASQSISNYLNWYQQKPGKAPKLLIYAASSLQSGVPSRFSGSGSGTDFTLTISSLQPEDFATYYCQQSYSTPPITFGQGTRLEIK
notes: Human variable regions, mouse IgG2 constant region; also called H2aM7138N
B12: H1H8790P (antibody, human IgG1, V domains shown)
VH: EVQLVESGGGLVQPGGSLRLSCEASGFTFSNYAMSWVRQAPGKGLEWVSGMSGSGTYPYYADSVKGRFTISRDNSKNMLYLQMNSLRVKDTAVYYCAKDGVDTAMILDTFDLWGQGTMVTVSS
VL: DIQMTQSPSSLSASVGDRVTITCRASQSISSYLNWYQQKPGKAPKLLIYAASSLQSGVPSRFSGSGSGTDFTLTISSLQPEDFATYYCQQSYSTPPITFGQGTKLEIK
notes: Human IgG1
B13: H1H8755P (antibody, human IgG1, V domains shown)
VH: EVQLVESGGGLVQPGRSLRLSCAASGFTFNDYAMHWVRQSPGKGLEWVSGIDWNGGSIDYADSVKGRFTISRDTAKNSLYLQMNSLKVEDTALYYCAKDIGHWNYIGGMDVWGQGTTVTVSS
VL: DIQMTQSPSSLSASVGDRVTITCRASQSINIYLNWYQQKPGKAPKFLIYAASSLQTGVPSRFSGSGSGTDFTLTISSLEPEDFATYYCQHSYSTPPITFGQGTRLEIK
notes: Human IgG1 (H1H: hIgG1)
B14: H1H8794P (antibody, V domains shown)
VH: QVQLVESGGGLVKPGGSLRLSCAASGFTFRDYSMSWIRQAPGKGLEWVSYVTFFNSAIYYADSVKGRFTISRDNAKNSLYLQMNSLRAEDTAVYYCAREREPIVGGFDYWGQGTLVTVSS
VL: B13 VL with I31S, F46L, T56G, S65G, S76T, E79Q, Y86F, H90Q, T94S
notes: Human IgG1
B15: H2M7135N (antibody, mouse IgG2, V domains shown)
VH: EVQLVESGGGLVQAGGSLRLSCAASGFTFSYHEMNWVRQAPGKGLEWVSYIGSRGTTKHYADPVKGRFTISRDNAKNSLYLQMNSLRAEDTAVYYCASEVGSILGYSMDVWGQGTTVTVSS
VL: DIQMTQSPSSLSASVGDRVTITCRASQSVSRYLNWCQQKPGKAPKLLTYAASSLQSGVPSRFSGSGSGTDFTLTISSLQPEDFAAYFCQQSYSTPPITFGQGTRLEIK
notes: Human variable regions, mouse IgG2 constant region
B16: H1H8770P (antibody, human IgG1, V domains shown)
VH: QVQLVESGGGVVQPGRSLRLSCAASGFTFSDHGMHWVRQAPGKGLEWVAVISYHGSNKHYADSVKGRFTISRDNSKNALYLQMNSLRPEDTAMYYCAKDGYDFWNGYSLFDYWGQGTLVTVSS
VL: B13 VL with N30S, I31N, F46L, A50T, S53N, Q55L, T56S, E79Q, H90Q, R104K
notes: Human IgG1
B17: H1H8783P (antibody, human IgG1, V domains shown)
VH: B16 VH with G33A, S56T, N57D, H59Q, A61G, G106A
VL: B13 VL with N30S, I31N, F46L, A50T, Q55L, T56S, E79Q, H90Q
notes: Human IgG1
B18: H1M7137N (antibody, mouse IgG1, V domains shown)
VH: QVQLQESGPGLVKPSETLSLTCTVSGGAINTYYWSWIRQPPGKGLEWIGYIYYRGNTNYNPSLRSRVTISVDTSKNQFFLKLRSVTVADSAVYFCARGWNYRAEYFQHWGQGTVVTVSS
VL: not shown
notes: as for B7

Experiments:
human MUC16 (mucin 16) [1] = target: T1, human MUC16 (mucin 16) (human); assay: MSD ECL cell binding, RLU ratio OVCAR-3 vs SK-OV-3, 16.7 nM Ab
T1 construct: Endogenously expressed on human tumour cell lines; also called hMUC16
Description: (§1) The ability of anti-MUC16 antibodies to bind specifically to endogenously expressing MUC16 on the human ovarian carcinoma cell line (OVCAR-3) was evaluated via an electrochemiluminescence based detection assay (Meso Scale Discovery (MSD), Rockville, Md.). […] Detached cells were then washed once in 1×PBS supplemented with Ca²⁺/Mg²⁺ and counted (Cellometer Auto T4 cell counter, Nexcelom Bioscience, Lawrence, Mass.). Approximately 1.0×10⁴ cells were plated in MULTI-ARRAY 96-well carbon electrode plates (MSD) and incubated for 1 h at 37° C. […] Next, serial dilutions of anti-MUC16 or control antibodies (0.85 pM-50 nM) and no-antibody buffer controls were added to the plate-bound cells and incubated for 1 h at room temperature (RT). Plates were then washed to remove the unbound antibodies using an AquaMax2000 plate washer (MDS Analytical Technologies, Sunnyvale, Calif.). Plate-bound antibodies were detected with a SULFO-TAG™-conjugated anti-human kappa light chain antibody (Regeneron) or a SULFO-TAG™-conjugated anti-mouse IgG antibody (Jackson Immunoresearch, West Grove, Pa.) for 1 h at RT. Post-wash, plates were developed with Read Buffer (MSD) according to manufacturer's protocol and luminescent signals were recorded with a SECTOR Imager 6000 (MSD) instrument.
(§2) Luminescence intensity, measured in relative light units (RLU), for the two cell lines was recorded to indicate the binding intensity of each antibody.

human MUC16 (mucin 16) [2] = target: T1, human MUC16 (mucin 16); assay: MSD ECL cell binding, RLU ratio OVCAR-3 vs SK-OV-3, 1.9 nM Ab
Description: as §1, §2

Row | Binder | Ratio anti-MUC16 Binding OVCAR-3/SK-OV-3 (human MUC16 (mucin 16) [1]) [ratio] | Ratio anti-MUC16 Binding OVCAR-3/SK-OV-3 (human MUC16 (mucin 16) [2]) [ratio]
1 | B1 | 57 | 81
2 | B2 | 48 | 20
3 | B3 | 21 | 4
4 | B4 | 51 | 137
5 | B5 | 99 | 143
6 | B6 | 74 | 109
7 | B7 | 120 | 153
8 | B8 | 18 | 41
9 | B9 | 26 | 89
10 | B10 | 13 | 12
11 | B11 | 50 | 82
12 | B12 | 3 | 8
13 | B13 | 5 | 13
14 | B14 | 3 | 8
15 | B15 | 5 | 30
16 | B16 | 3 | 9
17 | B17 | 4 | 11
18 | B18 | 29 | 77
